Experimental data published in PMC9241285.

Target: recombinant human Aβ42 sodium hydroxide (NaOH) salt (human) (UniProt P05067)

Chain of recombinant human apoE4 (P02649 19-317): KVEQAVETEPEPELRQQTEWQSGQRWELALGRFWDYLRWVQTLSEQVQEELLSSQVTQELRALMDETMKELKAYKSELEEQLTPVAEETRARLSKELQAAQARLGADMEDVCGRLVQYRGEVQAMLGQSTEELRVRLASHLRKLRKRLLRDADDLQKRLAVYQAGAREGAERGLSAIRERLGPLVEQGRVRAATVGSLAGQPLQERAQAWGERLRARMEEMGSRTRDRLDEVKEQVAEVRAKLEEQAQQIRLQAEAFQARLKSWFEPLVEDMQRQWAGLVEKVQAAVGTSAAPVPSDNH

reduction of apoE4-catalyzed Aβ42 fibrillization (ThT, HTS assay) by imipramine at 0.25, 2.5 and 25 μM; no effect on Aβ42 alone: > 30% | reduction of apoE4-catalyzed Aβ42 fibrillization (ThT, HTS assay) by olanzapine at 0.25, 2.5 and 25 μM; no effect on Aβ42 alone: > 30% | reduction of apoE4-catalyzed Aβ42 fibrillization (ThT, HTS assay) by sulfacetamide at 0.25, 2.5 and 25 μM; no effect on Aβ42 alone: > 30%
Substance: recombinant human apoE4 (from UniProt P02649 19-317) (natural protein)
